Results published in patent US20030186334A1, “KTS-disintegrins” (Temple University - Of the Commonwealth System of Higher …, priority 2001, published 2003).

Target: human α1β1 integrin (human), P56199
Test: inhibition of adhesion of α1K562 cells to immobilised collagen IV

Chain of human α1β1 integrin (human), P56199 (P56199 29-1179, chain 1 of 2): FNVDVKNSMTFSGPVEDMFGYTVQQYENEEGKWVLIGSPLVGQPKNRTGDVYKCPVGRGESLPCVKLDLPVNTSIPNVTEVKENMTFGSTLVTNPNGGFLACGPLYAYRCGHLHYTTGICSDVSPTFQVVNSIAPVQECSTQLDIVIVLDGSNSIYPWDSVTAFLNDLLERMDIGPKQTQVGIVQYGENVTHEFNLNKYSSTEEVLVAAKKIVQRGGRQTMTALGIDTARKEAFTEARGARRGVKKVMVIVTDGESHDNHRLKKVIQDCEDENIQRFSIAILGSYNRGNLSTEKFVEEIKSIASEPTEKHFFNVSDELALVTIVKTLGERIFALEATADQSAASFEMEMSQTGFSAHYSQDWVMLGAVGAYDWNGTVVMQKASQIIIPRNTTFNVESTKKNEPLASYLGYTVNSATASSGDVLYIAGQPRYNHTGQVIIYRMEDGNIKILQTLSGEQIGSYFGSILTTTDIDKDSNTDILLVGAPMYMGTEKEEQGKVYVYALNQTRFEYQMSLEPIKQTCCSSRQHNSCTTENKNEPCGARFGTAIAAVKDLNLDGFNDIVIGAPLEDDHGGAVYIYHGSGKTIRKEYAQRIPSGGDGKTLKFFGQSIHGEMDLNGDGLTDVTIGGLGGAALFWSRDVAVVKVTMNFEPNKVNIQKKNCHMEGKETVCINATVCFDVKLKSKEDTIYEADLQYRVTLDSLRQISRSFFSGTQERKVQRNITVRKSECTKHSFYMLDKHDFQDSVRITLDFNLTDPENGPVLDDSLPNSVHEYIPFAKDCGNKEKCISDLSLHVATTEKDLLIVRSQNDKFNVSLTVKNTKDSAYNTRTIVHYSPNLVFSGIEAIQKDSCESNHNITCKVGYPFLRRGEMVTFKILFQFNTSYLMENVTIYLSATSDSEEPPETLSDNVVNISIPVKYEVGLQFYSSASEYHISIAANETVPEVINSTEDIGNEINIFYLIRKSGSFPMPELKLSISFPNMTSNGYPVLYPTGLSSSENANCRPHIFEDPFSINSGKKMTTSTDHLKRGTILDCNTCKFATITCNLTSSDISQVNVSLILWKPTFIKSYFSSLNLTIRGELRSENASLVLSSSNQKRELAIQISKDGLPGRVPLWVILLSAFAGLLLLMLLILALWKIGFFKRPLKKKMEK
Chain of human α1β1 integrin (human), P56199 (P05556 21-798, chain 2 of 2, further chain): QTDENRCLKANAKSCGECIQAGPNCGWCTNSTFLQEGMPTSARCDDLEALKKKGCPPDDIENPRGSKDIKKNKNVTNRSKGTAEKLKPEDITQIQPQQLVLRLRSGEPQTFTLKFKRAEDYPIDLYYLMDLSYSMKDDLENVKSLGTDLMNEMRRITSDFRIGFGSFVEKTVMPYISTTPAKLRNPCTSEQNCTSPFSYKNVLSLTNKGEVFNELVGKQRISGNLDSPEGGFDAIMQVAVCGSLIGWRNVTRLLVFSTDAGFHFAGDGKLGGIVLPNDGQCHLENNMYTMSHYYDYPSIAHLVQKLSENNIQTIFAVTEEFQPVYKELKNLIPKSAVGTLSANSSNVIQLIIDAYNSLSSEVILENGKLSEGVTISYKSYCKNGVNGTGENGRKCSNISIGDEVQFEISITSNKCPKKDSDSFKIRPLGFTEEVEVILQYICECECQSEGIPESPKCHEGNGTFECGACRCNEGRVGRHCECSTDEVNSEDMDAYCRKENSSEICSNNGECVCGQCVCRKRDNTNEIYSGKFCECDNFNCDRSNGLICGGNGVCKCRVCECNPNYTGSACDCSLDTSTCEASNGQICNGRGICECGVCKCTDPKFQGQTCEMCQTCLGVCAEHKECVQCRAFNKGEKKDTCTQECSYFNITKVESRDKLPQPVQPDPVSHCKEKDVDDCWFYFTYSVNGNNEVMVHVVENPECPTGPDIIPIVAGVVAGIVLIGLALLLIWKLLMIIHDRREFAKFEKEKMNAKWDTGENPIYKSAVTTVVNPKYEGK

B1: synthetic peptide TSLTS (SEQ ID NO: 6) (peptide)
peptide: TSLTS
modifications: not checked
Q: B1 was tested. Which IC50 did it give?
A: Its IC50 is 3.5 mM.
